From US20070154472A1 (published 2007)
[ ]: non-standard residue; d: D form. The star is where a group is joined. Biotin = O=C1N[C@H]2[C@H](CS[C@H]2CCCCC(=O)*)N1; pY = N[C@@H](Cc1ccc(OP(=O)(O)O)cc1)C(=O)O; βAla = NCCC(=O)O

T1: fully sulfated and glycosylated human PSGL-1 19.ek.Fc fusion protein (human, sulfated tyrosines (y in QATEyEyLDyDFL, corresponding to Tyr46, Tyr48 and Tyr51 of mature human PSGL-1); O-linked glycan; biotinylated in the assays)
T1 construct: also called PSGL-19.ek.Fc; PSGL-19.ed.Fc; not shown: human IgG1 Fc as described in Somers et al., Cell 103:467-479 (2000)
T1 chain: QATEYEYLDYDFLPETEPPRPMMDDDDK

T2: BTK peptide (non-phosphorylated)
T2 construct: also called Tufts peptide
T2 peptide: {Biotin-βAla}-AKKVVALYDYMPMN-OH

T3: Phospho-BTK peptide (SMILES …)
T3 peptide: Biotin-[βAla]KKVVAL[pY]D[pY]MPMN-OH


Experiments:
[1] = molecular target: T1, fully sulfated and glycosylated human …; test: SPR (BIAcore 2000), biotinylated PSGL-1 19.ek.Fc on streptavidin chip, antibody 0-100 nM
Method: (§1) Surface plasmon resonance binding analysis. A BIAcore 2000 instrument (BIAcore AB, Uppsala, Sweden) was used to analyze the interactions between the identified antibodies and biotinylated PSGL-1 19.ek.Fc or derived peptides. Binding experiments were performed at 25° C. using streptavidin-coated sensor chips (BIAcore) and HBS-P buffer (20 mM HEPES [pH 7.4], 150 mM NaCl and 0.005% polysorbate 20 v/v) adjusted to 1 mM for both CaCl₂ and MgCl₂. The streptavidin on the sensor surfaces were conditioned with three one-minute injections of a solution containing 1 M NaCl and 25 mM NaOH. The chips were regenerated with 5 μL of 0.1% TFA and equilibrated with running buffer. […] Binding kinetics were analyzed using BIAevaluation software (V2.1; Pharmacia Biosensor, Uppsala, Sweden). The response representing the mass of bound monoclonal antibodies was measured in resonance units (RU). […] Binding kinetics of human anti-PSGL-1 monoclonal antibodies to the immobilized PSGL-1 19.ek.Fc was determined under partial mass transport limitations by triplicate injections at a concentration range (0-100 nM) onto the immobilized biotinlylated PSGL-1 19.ek.Fc peptide at a flow rate of 30 μL/min, following injection for two minutes. Dissociation was monitored for ten minutes at the same flow rate.

[2] = molecular target: T4, unglycosylated and unsulfated synthetic peptide 19.ek (human, biotinylated; no sulfate, no glycan); test: SPR (BIAcore), biotinylated peptide on streptavidin chip
T4 construct: also called synthetic peptide lacking sulfated tyrosine
Method: as §1, with “rate. […]” for “rate.”

[3] = molecular target: T2, BTK peptide (non-phosphorylated); test: dot blot on P81 phosphocellulose filters
Excerpt: (§2) PSG2 is Specific for Sulfotyrosine as Compared to Phosphotyrosine. To compare binding to various peptides, a GPG-290 polypeptide (GPG) or a BTK peptide (BTK) (Tufts peptide) (biotin-βAla-[…]-[OH]) (SEQ ID NO:339), one microliter of 1:3 dilutions of compound was spotted onto P81 phosphocellulose filters (Upstate Cell Signaling #20-134). GPG-290 is a dimeric molecule consisting of the N-terminal 290 amino acids of GPIbα fused to a mutated Fc domain of human IgG1. It contains 3 sulfated tyrosine residues at positions 276, 278, and 279. The BTK peptide is biotin-βAla-[…]-[OH] (SEQ ID NO:339). Phospho-BTK contains 2 phosphorylated tyrosine residues. The starting dilution for GPG-290 was 250 ng/μl and for the BTK peptide the starting dilution was 3 μg/μl. Western Blot analysis was performed as follows: filters were blocked for 1 hour in blocking buffer (TBS+0.1% Tween-20 (TBS/T) and 5% nonfat dry milk). Filters were washed in TBS/T and incubated overnight in primary antibody diluted in TBS/T+0.5% BSA. Washed filters were incubated for 1 hour with secondary antibody diluted in blocking buffer (HRP-mouse anti-human IgG4 to detect PSG-2 and HRP-goat anti-mouse IgG+A+M to detect anti-phospho-tyrosine antibody). HRP signal was detected with the SuperSignal Chemiluminescent Substrate (Pierce) and the filters were exposed to X-ray film.

Phospho-BTK peptide = molecular target: T3, Phospho-BTK peptide; test: dot blot on P81 phosphocellulose filters
Excerpt: as §2

| Binder | Ka [1] | binding result [2] | binding result [3] | binding result (Phospho-BTK peptide) |
| --- | --- | --- | --- | --- |
| PSG1 full-length bivalent antibody (human IgG4, lambda) (antibody, V domains shown, also called human monoclonal antibody PSG1) VH: QVQLQESGAEVKKPGASVKVSCKSSGYTFTAYYMHWLRQAPGQGLEWMGWINPNSGGTNYAQKFQGRVTLTRDTSISTAYMELNSLTSDDTAMYYCARGGPRVSSRPGIGYSDSWGKGTLVTVSS VL: QTVVLQEPSLTVSPGGTVTLTCASRIGAVTSGHYANWFQQKPGQAPRALIYRTNNKQSWTPARFSGSLLGDRAALTLSGAQPEDEADYYCLLYYGGSWVFGGGTKLTVLG | ~7.5e+09 M⁻¹ | no binding (tested: 100 nM) |  |  |
| PSG2 full-length bivalent antibody (human IgG4, lambda) (antibody, V domains shown, also called P5G2; human monoclonal antibody PSG2) VH: not shown VL: QAVLTQPSSLSASPGASASLTCTLRSGIDVGPHRIYWFQQKPGSTPQYLLRYKSDSDTQQGSGVPSRFSGSKDASANAGILLISGLQSEDEADYYCMIWHSSAWVFGGGTKLTVLG | ~3.2e+10 M⁻¹ | no binding (tested: 100 nM) | no binding | no binding |
